Tested on: Control-H reference system (specific and nonspecific 200 bp DNA fragments from pBR322)
Assay: mTAG labeling, biotinylation, capture on streptavidin beads and multiplex real-time PCR of Control-H reference system
Conditions: Control-H alone; Ado-11-amine cofactor; 228 nM enzyme; 37° C. 2 hours; percentage of material used for bead separation

B1: HpaII (Q104A/N335A): His6-tagged M.HpaII C5 DNA methyltransferase (CCGG target site) double-alanine mutant Q104A/N335A (protein, UniProt P15446 1-358, looked up, variant Q104A N335A)
Type II methyltransferase …: MKDVLDDNLLEEPAAQYSLFEPESNPNLREKFTFIDLFAGIGGFRIAMQNLGGKCIFSSEWDEQAQKTYEANFGDLPYGDITLEETKAFIPEKFDILCAGFPCAAFSIAGKRGGFEDTRGTLFFDVAEIIRRHQPKAFFLENVKGLKNHDKGRTLKTILNVLREDLGYFVPEPAIVNAKNFGVPQNRERIYIVGFHKSTGVNSFSYPEPLDKIVTFADIREEKTVPTKYYLSTQYIDTLRKHKERHESKGNGFGYEIIPDDGIANAIVVGGMGRERNLVIDHRITDFTPTTNIKGEVNREGIRKMTPREWARLQGFPDSYVIPVSDASAYKQFGASVAVPAIQATGKKILEKLGNLYD
modifications: His6 tag
**Q.** How did the “level of nonspecific probe found on beads” value turn out when B1 was run?
**A.** The value was 5-6%.

**Q.** And the “yield of unmethylated (specific) probe recovered on beads” value?
**A.** The value was 50-60%.
